Patent US20050118674A1, “Engineering of Controlled Deamidation Rates in Peptides, Proteins, and Similar Structures” (priority 2003, published 2005)

assay: First-order nonenzymatic deamidation of pentapeptides in Tris buffer; type: physicochemical; settings: pH 7.4, 37.0° C., 0.15 M Tris HCl; Asn pentapeptides
Description: One of the discoveries made was that the sequence dependence of deamidation is much richer and covers a wider range than previously thought. In 37° C., pH 7.4, 0.15 M Tris buffer, the combination of XxxAsnYyy and XxxGlnYyy sequences where Xxx and Yyy are any of the naturally occuring amino acids covers a range from less than 1 day to over 15,000 days with the entire range in between available.
It is based on pentapeptide rates measure in 37° C., pH 7.4, 0.15 M Tris buffer. The applicability of a pentapeptide model to sequence dependence was verified in a separate set of experiments. All values listed in this table are experimental except for the four values in boxes, which were estimated from the rest of the data.
It is also based on pentapeptide rates measure in 37° C., pH 7.4, 0.15 M Tris buffer. In this case, the 52 values shown in bold were measured, and the rest of the values were derived from surface fitting.
Deamidation rates are affected by a wide variety of parameters, including, pH, Temperature, Ionic Strength, and Buffer Ions. These rates are measured under pH and Temperature conditions that are applicable to biological systems. The buffer type and concentration were chosen to minimize ion affects to the extent possible given the experimental limitations. Modification of these conditions will change the rates in Tables 1 and 2. As long as the conditions are not taken to extremes (i.e. high temperature, or strongly acidic or basic conditions) the qualitative sequence dependence should remain the same and the rates reported here can be used with necessary adjustments.

Point of comparison: “GlyAlaAsnTrpGly (GANWG; printed: GlyAlaAsnTrpGly)”, “First-Order Deamidation Halftimes of GlyXxxAsnYyyGly” value 130 days. Against it:
- GlyValAsnLeuGly (GVNLG; printed: GlyValAsnLeuGly) — higher, 154 days
- GlyMetAsnArgGly (GMNRG; printed: GlyMetAsnArgGly) — lower, 58.8 days
- GlyLeuAsnAlaGly (GLNAG; printed: GlyLeuAsnAlaGly) — lower, 25.1 days
- GlyLeuAsnLeuGly (GLNLG; printed: GlyLeuAsnLeuGly) — higher, 155 days
- GlyTrpAsnThrGly (GWNTG; printed: GlyTrpAsnThrGly) — lower, 38.9 days
- GlyGlyAsnCysGly (GGNCG; printed: GlyGlyAsnCysGly) — lower, 40.6 days
- GlyHisAsnProGly (GHNPG; printed: GlyHisAsnProGly) — higher, 8440 days
- GlyHisAsnTrpGly (GHNWG; printed: GlyHisAsnTrpGly) — lower, 95.4 days
- GlyTrpAsnAmCysGly — lower, 42.9 days
- GlyAlaAsnGluGly (GANEG; printed: GlyAlaAsnGluGly) — lower, 74.1 days
- GlyValAsnProGly (GVNPG; printed: GlyValAsnProGly) — higher, 8030 days
- GlyAspAsnHisGly (GDNHG; printed: GlyAspAsnHisGly) — lower, 9.7 days
- GlyProAsnLeuGly (GPNLG; printed: GlyProAsnLeuGly) — higher, 181 days
- GlyLysAsnPheGly (GKNFG; printed: GlyLysAsnPheGly) — lower, 70.1 days
- GlyGluAsnIleGly (GENIG; printed: GlyGluAsnIleGly) — higher, 279 days
- GlyThrAsnArgGly (GTNRG; printed: GlyThrAsnArgGly) — lower, 51.2 days
- GlyProAsnAlaGly (GPNAG; printed: GlyProAsnAlaGly) — lower, 31.8 days
- GlyArgAsnLysGly (GRNKG; printed: GlyArgAsnLysGly) — lower, 49.6 days
- GlyThrAsnLysGly (GTNKG; printed: GlyThrAsnLysGly) — lower, 57.6 days
- GlyIleAsnAmCysGly — lower, 33.0 days
- GlyArgAsnTyrGly (GRNYG; printed: GlyArgAsnTyrGly) — lower, 90.0 days
- GlyLeuAsnArgGly (GLNRG; printed: GlyLeuAsnArgGly) — lower, 62.1 days
- GlyGlyAsnAspGly (GGNDG; printed: GlyGlyAsnAspGly) — lower, 28.0 days
- GlyAmCysAsnAmCysGly — lower, 39.3 days
- GlySerAsnTrpGly (GSNWG; printed: GlySerAsnTrpGly) — lower, 76.8 days
- GlyPheAsnArgGly (GFNRG; printed: GlyPheAsnArgGly) — lower, 61.2 days
- GlyPheAsnValGly (GFNVG; printed: GlyPheAsnValGly) — higher, 203 days
- GlyHisAsnPheGly (GHNFG; printed: GlyHisAsnPheGly) — lower, 72.1 days
- GlyLysAsnAmCysGly — lower, 36.5 days
- GlyPheAsnAmCysGly — lower, 29.8 days
- GlyMetAsnAmCysGly — lower, 33.8 days
- GlyIleAsnTrpGly (GINWG; printed: GlyIleAsnTrpGly) — lower, 86.7 days
- GlyAspAsnGluGly (GDNEG; printed: GlyAspAsnGluGly) — lower, 46.8 days
- GlyAspAsnTyrGly (GDNYG; printed: GlyAspAsnTyrGly) — lower, 70.4 days
- GlyAspAsnCysGly (GDNCG; printed: GlyAspAsnCysGly) — lower, 54.1 days
- GlyThrAsnSerGly (GTNSG; printed: GlyThrAsnSerGly) — lower, 17.1 days
- GlyAspAsnMetGly (GDNMG; printed: GlyAspAsnMetGly) — lower, 57.3 days
- GlySerAsnLysGly (GSNKG; printed: GlySerAsnLysGly) — lower, 55.5 days
- GlyPheAsnTrpGly (GFNWG; printed: GlyPheAsnTrpGly) — lower, 102 days
- GlyValAsnLysGly (GVNKG; printed: GlyValAsnLysGly) — lower, 63.8 days
- GlyTrpAsnPheGly (GWNFG; printed: GlyTrpAsnPheGly) — lower, 71.1 days
- GlyHisAsnAmCysGly — lower, 33.8 days
- GlyThrAsnMetGly (GTNMG; printed: GlyThrAsnMetGly) — lower, 47.6 days
- GlyMetAsnMetGly (GMNMG; printed: GlyMetAsnMetGly) — lower, 56.9 days

same assay, conditions: pH 7.4, 37.0 ° C., 0.15 M Tris HCl; Gln pentapeptides; 52 values measured, rest derived from surface fitting

Point of comparison: “GlyGlyGlnAlaGly (GGQAG; printed: GlyGlyGlnAlaGly)”, “First-Order Deamidation Halftimes of GlyXxxGlnYyyGly” value 5900 days. Against it:
- GlyHisGlnLysGly (GHQKG; printed: GlyHisGlnLysGly) — lower, 4000 days
- GlyLysGlnTyrGly (GKQYG; printed: GlyLysGlnTyrGly) — higher, 8800 days
- GlyAspGlnMetGly (GDQMG; printed: GlyAspGlnMetGly) — lower, 5200 days
- GlyCysGlnPheGly (GCQFG; printed: GlyCysGlnPheGly) — higher, 6500 days
- GlyHisGlnAlaGly (GHQAG; printed: GlyHisGlnAlaGly) — higher, 7200 days
- GlyProGlnSerGly (GPQSG; printed: GlyProGlnSerGly) — lower, 4600 days
- GlyLeuGlnProGly (GLQPG; printed: GlyLeuGlnProGly) — higher, 10000 days
- GlyGlyGlnTyrGly (GGQYG; printed: GlyGlyGlnTyrGly) — higher, 12000 days
- GlyIleGlnTyrGly (GIQYG; printed: GlyIleGlnTyrGly) — higher, 12000 days
- GlyTyrGlnIleGly (GYQIG; printed: GlyTyrGlnIleGly) — higher, 7900 days
- GlyLeuGlnHisGly (GLQHG; printed: GlyLeuGlnHisGly) — higher, 6100 days
- GlyGlyGlnProGly (GGQPG; printed: GlyGlyGlnProGly) — higher, 10000 days
- GlyValGlnLeuGly (GVQLG; printed: GlyValGlnLeuGly) — lower, 5500 days
- GlyPheGlnIleGly (GFQIG; printed: GlyPheGlnIleGly) — higher, 6400 days
- GlyHisGlnSerGly (GHQSG; printed: GlyHisGlnSerGly) — higher, 6300 days
- GlyHisGlnTrpGly (GHQWG; printed: GlyHisGlnTrpGly) — higher, 18000 days
- GlyLysGlnAspGly (GKQDG; printed: GlyLysGlnAspGly) — the same, 5900 days
- GlyLysGlnGlyGly (GKQGG; printed: GlyLysGlnGlyGly) — lower, 650 days
- GlyIleGlnAlaGly (GIQAG; printed: GlyIleGlnAlaGly) — higher, 6200 days
- GlyValGlnValGly (GVQVG; printed: GlyValGlnValGly) — the same, 5900 days
- GlyAlaGlnThrGly (GAQTG; printed: GlyAlaGlnThrGly) — lower, 5100 days
- GlyLeuGlnIleGly (GLQIG; printed: GlyLeuGlnIleGly) — higher, 6500 days
- GlySerGlnSerGly (GSQSG; printed: GlySerGlnSerGly) — higher, 6000 days
- GlySerGlnHisGly (GSQHG; printed: GlySerGlnHisGly) — higher, 6500 days
- GlyLeuGlnThrGly (GLQTG; printed: GlyLeuGlnThrGly) — lower, 5300 days
- GlyProGlnMetGly (GPQMG; printed: GlyProGlnMetGly) — lower, 4500 days
- GlyTyrGlnAlaGly (GYQAG; printed: GlyTyrGlnAlaGly) — higher, 7300 days
- GlyThrGlnValGly (GTQVG; printed: GlyThrGlnValGly) — lower, 5100 days
- GlyIleGlnGlyGly (GIQGG; printed: GlyIleGlnGlyGly) — lower, 620 days
- GlyGlyGlnLeuGly (GGQLG; printed: GlyGlyGlnLeuGly) — higher, 6200 days
